The record followed here is patent publication US20100261660A1 (published 2010).

Changes are numbered by the printed parent chain.

B1: Round 2 CD28D12-5 (ligand)
chain: ITPKSVTKRVKETVMLSCDYSTSTEELTSLRIYWQKDSKMVLAILPGKVQVWPEYKNRTITDMNDNPRIVILALRLSDSGTYTCVIQKPVLKGAYKLEHLASVRLMIRADFPVPSITDIGHPAPNVKRIRCSASGDFPEPRLAWMEDGEELNAVNTTVLDTELYSVSSELDFNVTNNHSIVCLIKYGELSVSQIFPWSKPKQEPPIDQLPFWVIIPVSGALVLTAVVLYCLACRHVARWKRTRRNEETVGTERLSPIYLGSAQPSG
B2: Round 2 CD28D11-1 (ligand)
chain: ITPKSVTKRVKETVMLSCDYNTSTEELTSLRIYWQKDSKMVLAILPGKVQVWPEYKNRTITDMNDNPRIVILALRLSDSGTYTCVVQKNENGSFRREHLTSVTLSIRADFPVPSITDIGHPAPNVKRIRCSASGDFPEPRLAWMEDGEELNAVNTTVDQDLDTELYSVSSELDFNVTNNHSIVCLIKYGELSVSQIFPWSKPKQEPPIDQLPFWVIILVSGALVLTAVVLYCLACRHVARWKRTRRNEETVGTERLSPIYLGSAQSSG
B3: Round 2 CD28D2-3 (ligand)
chain: ITPKSVTKRVKETVMLSCDYNTSTEELTSLRIYWQKDSKMVLAILPGKVQVWPEYKNRTITDMNDNPRIVIQALRLSDSGTYTCVIQKPVLKGAYKLEHLASVRLMIRADFPVPTDLGNPSPNIRRLICSTSGGFPRPHLYWLENGEELNATNTTVSQDPGTELYMISSELDFNVTNNHSIVCLIKYGELSVSQIFPWSKPKQEPPIDQLPFWVIIPVSGALVLTAVVLYCLACRHVARWKRTRRNEETVGTERLSPIYLGSAQSSG
B4: Round 2 CD28H6-6 (ligand)
chain: ITPKSVTKRVKETVMLSCDYSTSTEELTSLRIYWQKDSKMVLAILPGKVQVWPEYKNRTITDMNDNPRIVILALRLSDSGTYTCVIQKPVLKGAYKLEHLASVRLMIRADFPVPTINDLGNPSPNIRRLICSGFPRPHLYWLENGEELNATNTTVSQDPGTELYMISSELDFNVTNNHSIVCLIKYGELSVSQIFPWSKPKQEPPIDQLPFWVIIPVSGALVLTAVVLYCLACRHVARWKRTRRNEETVGTERLSPIYLGSAQSSG
B5: Round 2 CD28C7-3 (ligand)
chain: ITPKSVTKRVKETVMLSCDYSTSTEELTSLRIYWQKDSKMVLAILPGKVQVWPEYKNRTITDMNDNPRIVILALRLSDSGTYTCVIQKPDLKGAYKLEHLTSVRLMIRADFPVPSITDIGHPAPNVKRIRCSASGDFPEPRLAWMEDGEELNAVNTTVDQDLDTELYSVSSELDFNVTNNHSIVCLIKYGELSVSQIFPWSKPKQEPPIDQLPFWVIIPVSGALVLTAVVLYCLACRHVARWKRTRRNEETVGTERLSPIYLGSAQSSG
B6: Round 2 CD28F12-5* (ligand)
chain: B5 chain with S21N, T101A
B7: Round 2 CD28F10-2 (ligand)
chain: B5 chain with S21N
B8: Round 2 CD28G1-9 (ligand)
chain: B5 chain with S21N, D90V, D136G
B9: Round 2 CD28C2-4 (ligand)
chain: GISQVTKSVKEMAALSCDYNISIDELARMRIYWQKDQQMVLSIISGQVEVWPEYKNRTITDMNDNPRIVILALRLSDSGTYTCVIQKPVLKGAYKPEHLASVRLMIRADFPVPTINDLGNPSPNIRRLICSTSGGFPRPHLYWLENGEELNATNTTLSQDPETKLYMISSELDFNMTSNHSFLCLVKYGDLTVSQTFYWQESKPTPSANQHLTWTIIIPVSAFGISVIIAVILTCLTCRNAAIRRQRRENEVEMQSCSQSP

This test has as its target T1, Soluble CD28-Ig (extracellular domain of human CD28 fused to the Fc portion of human IgG1) (human, UniProt P10747 19-152, biotin-conjugated (NHS-biotin) in the FACS binding assays).
T1 construct: extracellular domain; bought from R&D Systems; also called sCD28-Ig; CD28-Ig Fc; not shown: Fc portion of human IgG1
Put plainly: competitive FACS on transfected cells, biotin-sCD28-Ig with FITC-sCTLA-4-Ig; grade 0-2 of CD28/CTLA-4 ratio vs WT hB7-1.
With B1, the “Binding Score” value was found to be 2.

In the case of B2, the “Binding Score” value came to 2.

Take B3: the “Binding Score” value came out at 1.

On to B4, for which the “Binding Score” value was determined as 1.

Regarding B5, the “Binding Score” value amounted to 1.

In the case of B6, the “Binding Score” value came to 1.

As to B7, the “Binding Score” value was 1.

For the molecule B8, the “Binding Score” value was determined as 1.

Take B9: the “Binding Score” value is 1.
